# According to US20030144205A1 (published 2003):
# B1: proteasome subunit β, type 1 (PSMB1) (other, mouse, UniProt O09061 1-240, looked up)
# chain: MLSTAAYRDVERELGMGPHGSAGPVQLRFSPYAFNGGTVLAIAGEDFSIVASDTRLSEGFSIHTRDSPKCYKLTDKTVIGCSGFHGDCLTLTKIIEARLKMYKHSNNKAMTTGAIAAMLSTILYSRRFFPYYVYNIIGGLDEEGKGAVYSFDPVGSYQRDSFKAGGSASAMLQPLLDNQVGFKNMQNVEHVPLTLDRAMRLVKDVFISAAERDVYTGDALRICIVTKEGIREETVPLRKD
# notes: In vitro: HA tagged; CHO cells: C-terminal MYC tag; 25 kDa; also called Proteasome beta type 1 subunit (PSMB1); pGADT7-PSMB1
# B2: Solute carrier family 25, member 5 (SLC25A5) (other, mouse, UniProt P51881 1-298, looked up)
# chain: MTDAAVSFAKDFLAGGVAAAISKTAVAPIERVKLLLQVQHASKQITADKQYKGIIDCVVRIPKEQGVLSFWRGNLANVIRYFPTQALNFAFKDKYKQIFLGGVDKRTQFWRYFAGNLASGGAAGATSLCFVYPLDFARTRLAADVGKAGAEREFKGLGDCLVKIYKSDGIKGLYQGFNVSVQGIIIYRAAYFGIYDTAKGMLPDPKNTHIFISWMIAQSVTAVAGLTSYPFDTVRRRMMMQSGRKGTDIMYTGTLDCWRKIARDEGSKAFFKGAWSNVLRGMGGAFVLVLYDEIKKYT
# notes: Prey from the ovary cDNA library (pGADT7)
# B3: ATP synthase, H+ transporting, mitochondrial F0 complex, subunit F (ATP5J) (other, mouse, UniProt P97450 1-108, looked up)
# chain: MVLQRIFRLSSVLRSAVSVHLKRNIGVTAVAFNKELDPVQKLFVDKIREYKSKRQASGGPVDIGPEYQQDLDRELYKLKQMYGKGEMDTFPTFKFDDPKFEVIDKPQS
# notes: as for B2
# B4: Microfibrillar-associated protein 2 (MFAP2) (other, mouse, UniProt P55002 17-183, looked up)
# chain: QGQYDLDPLPPFPDHVQYNHYGDQIDNADYYDYQEVSPRTPEEQFQSQQQVQQEVIPAPTPEPAAAGDLETEPTEPGPLDCREEQYPCTRLYSIHKPCKQCLNEVCFYSLRRVYVVNKEICVRTVCAHEELLRADLCRDKFSKCGVMAVSGLCQSVAASCARSCGGC
# notes: as for B2
# B5: mouse RFPL4, full-length (amino acid residues 1-287) (other, UniProt Q8VH31 1-287, looked up)
# chain: MAHLFKEKSNCYFCFRCLESPVYLNCGYICCLKCLDSLEKSPEGDGVLCPTCSVVSLKEDIIHAKQLGALVTKIKNLEPQLNFILTMDQGMKIFQVTMTLDVDTAQNHLIISDDLLSVYYTPQKQARKKCAERFHPSPCVLGSSRFTSGRHYWEVVVGTSKEWDIGICKESINRKKAIHLSEKNGFWTVGVRAKKVYSASTDPLTVLRVNPRLRRVGIFLDMLEKSVSFWDLSDGSHIYTFLEIPDTDPFRPFFSPASSYPDGDQEQVLSICPVTNPGIFGIPVNPQ
# notes: One entry is used for all tagged forms; CHO cells: C-terminal FLAG (pCMV-Tag4A) or C-terminal MYC (pCMV-Tag5A); Western blot: endogenous protein in mouse tissue lysates; also called mRFPL4; pGBKT7-RFPL4
# B6: cyclin B1, full-length (other)
# chain: MALRVTRNTKINAENKAKVSMAGAKRVPVTVTAASKPGLRPRTALGDIGNKVSEELQARVPLKREAKTLGTGKGTVKALPKPVEKVPVCEPEVELAEPEPEPELEHVREEKLSPEPILVDNPSPSPMETSGCAPAEEYLCQAFSDVILAVSDVDADDGADPNLCSEYVKDIYAYLRQLEEEQSVRPKYLQGREVTGNMRAILIDWLIQVQMKFRLLQETMYMTVSIIDRFMQNSCVPKKMLQLVGVTAMFIASKYEEMYPPEIGDFAFVTNNTYTKHQIRQMEMKILRVLNFSLGRPLPLHFLRRASKVGEVDVEQHTLAKYLMELSMLDYDMVHFAPSQIAAGAFCLALKILDNGEWTPTLQHYLSYSEDSLLPVMQHLAKNVVMVNCGLTKHMTVKNKYAASKHAKISTLAQLNCTLVQNLSKAVTKA
# notes: 47 kDa; also called Ccnb1; CCNB1
# B7: Myosin light chain, alkali, non-muscle (MYLN) (other, mouse, UniProt Q60605 1-151, looked up)
# chain: MCDFTEDQTAEFKEAFQLFDRTGDGKILYSQCGDVMRALGQNPTNAEVLKVLGNPKSDEMNVKVLDFEHFLPMLQTVAKNKDQGTYEDYVEGLRVFDKEGNGTVMGAEIRHVLVTLGEKMTEEEVEMLVAGHEDSNGCINYEAFVRHILSG
# notes: Prey from the ovary cDNA library (pGADT7); Tags as for the other preys
# B8: Cytochrome C oxidase subunit II (MT-CO2) (other, mouse, UniProt P00405 1-227, looked up)
# chain: MAYPFQLGLQDATSPIMEELMNFHDHTLMIVFLISSLVLYIISLMLTTKLTHTSTMDAQEVETIWTILPAVILIMIALPSLRILYMMDEINNPVLTVKTMGHQWYWSYEYTDYEDLCFDSYMIPTNDLKPGELRLLEVDNRVVLPMELPIRMLISSEDVLHSWAVPSLGLKTDAIPGRLNQATVTSNRPGLFYGQCSEICGSNHSFMPIVLEMVPLKYFENWSASMI
# notes: as for B2
# Legend:
# [1] = biological target: B5; assay: yeast two-hybrid mating screen of the ovary cDNA library with pGBKT7-RFPL4 as bait
# [2] = biological target: B5; assay: yeast two-hybrid cotransformation
# [3] = biological target: Lysosomal-associated protein 4 (LAPTM4A) (mouse, UniProt Q60961 1-233); assay: yeast two-hybrid cotransformation
# cyclin B1, full-length = biological target: B6; assay: co-immunoprecipitation of 35S-labelled proteins translated in vitro in reticulocyte lysate
# Experimental: The pGBKT7 (MYC-Tagged) and pGADT7 (HA-Tagged) vectors were used as templates for in vitro transcription/translation using [³⁵S]Met and the TNT T7 Coupled Reticulocyte Lysate System (Promega, Madison, Wis.). In vitro translated proteins were combined at room temperature for 1 h, and reciprocal co-immunoprecipitation experiments were performed using mouse anti-MYC monoclonal or rabbit anti-HA polyclonal antibodies (Clontech).
# Epitope tagged bait and prey proteins were transcribed by T7 polymerase from pGBKT7 and pGADT7 templates without DNA binding or transactivation domains. As positive control vectors, pGBKT7-murine p53 (MYC-epitope tagged) and pGADT7-SV40 large T (HA-epitope tagged) were used. ³⁵S-methionine was included in translation mixtures to generate products detectable by autoradiography.
# [4] = biological target: the molecule itself; assay: yeast two-hybrid cotransformant growth/fluorescence assay
# Text: (§1) Briefly, after inoculation, the initial fluorescence was checked and the cells were allowed to grow for 40 hr, and then the fluorescence of an oxygen sensitive dye using the [sequence] Biosensor kit (Clontech) was rechecked. Fluorescence was excited at 485 nm, and emission was read at 630 nm. To find the fold increase in fluorescence, an indication of yeast growth in selection media, the fluorescence intensity at time t=40 hr was divided by the initial intensity recorded at time t=0 hr (Fluorescence(t40)/Fluorescence(t0)). The values shown were the means of triplicate measurements of three independent transformants. Standard deviations were indicated by the error bars.
# [5] = biological target: T1, HR6A (Ube2a), full-length (mouse, UniProt Q9Z255 1-152); assay: as above
# T1 construct: also called pGADT7-HR6A; MYC-tagged HR6A
# T1 sequence (Q9Z255 whole entry): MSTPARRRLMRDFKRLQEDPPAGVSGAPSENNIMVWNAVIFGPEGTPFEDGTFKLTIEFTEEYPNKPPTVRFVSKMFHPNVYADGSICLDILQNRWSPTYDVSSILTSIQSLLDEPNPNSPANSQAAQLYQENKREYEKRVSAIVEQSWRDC
# Text: as §1
# [6] = biological target: T1, HR6A (Ube2a), full-length; assay: anti-FLAG co-immunoprecipitation from lysates of cotransfected CHO cells (FLAG-tagged cyclin B1)
binder,measurement,setting,value
B1,# of clones,[1],7 clones
B2,# of clones,[1],1 clones
B3,binding result,[2],no binding
same,# of clones,[1],1 clones
B4,binding result,[2],no binding
same,# of clones,[1],1 clones
B5,binding result,[3],no binding
same,binding result,"cyclin B1, full-length",binds
same,binding result,[4],no binding
same,binding result,[5],binds
B6,binding result,[6],binds
B7,# of clones,[1],3 clones
B8,# of clones,[1],2 clones
